# Assay results: the Human Domainome abundance scans (Beltran et al. 2025)
# ± gives the uncertainty stated by the source.
# B1: Cytoplasmic polyadenylation element-binding protein 2, residues 513 to 575; numbered along this chain, Q7Z5Q1 (parent)
# chain: KRVEVKPYVLDDQMCDECQGARCGGKFAPFFCANVTCLQYYCEFCWANIHSRAGREFHKPLVK
# Variants of: B1
# Assay: abundance fitness (aPCA) (normalised: wild type 0, dead -1); higher = more abundant; growth selection in yeast, the domain comes from the species named
# Conditions: Homo sapiens
row,Variant,abundance fitness
1,C37T,-1 ± 0.12
2,C37F,-0.85 ± 0.14
3,C37Y,-0.806 ± 0.12
4,Q19V,-0.093 ± 0.042
5,Q19N,-0.446 ± 0.25
6,Q19D,-0.056 ± 0.076
7,Q19R,-0.015 ± 0.049
8,Q19S,-0.071 ± 0.029
9,Q19M,-0.091 ± 0.055
10,A47C,-0.318 ± 0.062
11,A47P,-0.175 ± 0.039
12,A47M,0.019 ± 0.053
13,A47I,-0.073 ± 0.064
14,A47F,-0.235 ± 0.062
15,A28V,-0.287 ± 0.046
16,A28Q,-0.366 ± 0.079
17,A28Y,-0.985 ± 0.2
18,A28P,-0.208 ± 0.068
19,Q13I,-0.197 ± 0.096
20,Q13V,-0.083 ± 0.047
21,Y40C,-0.411 ± 0.1
22,Y40L,-0.397 ± 0.049
23,Y40F,-0.087 ± 0.089
24,Y40E,-0.702 ± 0.063

row,Variant,abundance fitness
1,C15V,-0.587 ± 0.055
2,C15K,-0.649 ± 0.063
3,H58S,-0.523 ± 0.058
4,H58E,-0.442 ± 0.069
5,H58M,-0.653 ± 0.091
6,H58T,-0.611 ± 0.082
7,H58F,-0.934 ± 0.11
8,G24N,0.172 ± 0.094
9,G24I,-0.418 ± 0.06
10,G24R,-0.135 ± 0.04
11,G24T,-0.325 ± 0.055
12,G24A,-0.052 ± 0.051
13,G25R,-0.081 ± 0.041
14,G25P,-0.321 ± 0.06
15,G25F,-0.118 ± 0.059
16,G25H,-0.19 ± 0.061
17,G54I,-0.176 ± 0.16
18,K63P,0.367 ± 0.3
19,K63H,-0.014 ± 0.11
20,K63A,0.125 ± 0.16
21,C45F,-1.2 ± 0.17
22,C45L,-1.14 ± 0.081
23,R55F,0.035 ± 0.051
24,R55Y,0.211 ± 0.057

row,Variant,abundance fitness
1,R55P,-0.463 ± 0.066
2,R55I,0.104 ± 0.1
3,D11C,-0.205 ± 0.067
4,D11A,-0.122 ± 0.045
5,D11F,-0.149 ± 0.085
6,D11Y,-0.112 ± 0.096
7,Y41V,-0.531 ± 0.042
8,Y41E,-0.652 ± 0.081
9,G20A,-0.501 ± 0.073
10,G20P,-0.688 ± 0.078
11,G20Q,-0.582 ± 0.1
12,G20F,-0.987 ± 0.12
13,L10V,-0.106 ± 0.038
14,L10C,-0.065 ± 0.066
15,M14I,-0.082 ± 0.12
16,M14S,0.098 ± 0.04
17,M14C,-0.104 ± 0.072
18,M14T,0.069 ± 0.045
19,E4P,-0.145 ± 0.045
20,E4N,-0.15 ± 0.08
21,E4G,-0.234 ± 0.059
22,E4Y,-0.275 ± 0.1
23,S51L,-0.021 ± 0.041
24,S51A,0.045 ± 0.057

row,Variant,abundance fitness
1,Q39G,0.024 ± 0.051
2,Q39I,-0.573 ± 0.1
3,T36E,0.108 ± 0.037
4,T36S,-0.011 ± 0.041
5,T36P,-0.054 ± 0.048
6,T36A,0.007 ± 0.045
7,P7Y,-0.405 ± 0.098
8,P7T,-0.014 ± 0.05
9,P7G,-0.141 ± 0.037
10,V35A,0.039 ± 0.048
11,V35I,-0.088 ± 0.064
12,V9S,0.058 ± 0.039
13,V9E,-0.022 ± 0.052
14,F57L,0.091 ± 0.046
15,F57T,0.121 ± 0.061
16,F57I,-0.109 ± 0.11
17,F57W,0.026 ± 0.049
18,F57P,-0.029 ± 0.052
19,A53C,-0.091 ± 0.068
20,A53R,0.055 ± 0.03
21,A53Y,-0.098 ± 0.064
22,A53P,0.157 ± 0.046
23,A53K,0.142 ± 0.051
24,A53H,0.053 ± 0.064

row,Variant,abundance fitness
1,A53V,-0.006 ± 0.038
2,A53F,-0.045 ± 0.056
3,K1M,-0.184 ± 0.084
4,K1T,-0.036 ± 0.078
5,K1Q,-0.248 ± 0.09
6,N34Q,-0.207 ± 0.078
7,N34G,-0.106 ± 0.05
8,N34Y,-0.103 ± 0.074
9,N34A,-0.028 ± 0.05
10,E56D,-0.035 ± 0.081
11,E56R,-0.01 ± 0.037
12,E56P,-0.31 ± 0.054
13,E56K,0.035 ± 0.066
14,D12L,-0.288 ± 0.047
15,D12Q,0.052 ± 0.071
16,P60N,-0.057 ± 0.12
17,P60E,-0.412 ± 0.072
18,P60Q,0.051 ± 0.046
19,R22S,-0.04 ± 0.04
20,F44S,-0.012 ± 0.038
21,F44W,-0.067 ± 0.043
22,F44P,0.082 ± 0.048
23,F44L,0.007 ± 0.038
24,F44K,-0.046 ± 0.058

row,Variant,abundance fitness
1,P29I,-0.282 ± 0.073
2,P29N,-0.01 ± 0.062
3,P29F,-0.31 ± 0.074
4,Y8N,0.13 ± 0.075
5,Y8W,-0.091 ± 0.059
6,Y8T,-0.026 ± 0.059
7,C42Y,-0.869 ± 0.094
8,D16L,-0.271 ± 0.038
9,D16F,0.145 ± 0.055
10,A33D,0.12 ± 0.063
11,A33P,-0.072 ± 0.05
12,K26I,-0.236 ± 0.091
13,K26H,-0.126 ± 0.075
14,K26M,-0.1 ± 0.056
15,A21R,-0.033 ± 0.034
16,A21V,-0.098 ± 0.041
17,A21W,-0.41 ± 0.069
18,A21Y,-0.32 ± 0.095
19,A21S,-0.018 ± 0.04
20,C32T,-0.779 ± 0.06
21,C32N,-0.724 ± 0.12
22,C32F,-1.1 ± 0.18
23,C32I,-0.47 ± 0.2
24,R52C,-0.077 ± 0.14

row,Variant,abundance fitness
1,R52E,0.079 ± 0.045
2,R52K,0.118 ± 0.068
3,R52S,0.085 ± 0.05
4,L38E,0.077 ± 0.053
5,L38W,0.022 ± 0.046
6,L38D,-0.054 ± 0.052
7,L38A,0.044 ± 0.043
8,L38F,-0.076 ± 0.072
9,L38N,0.219 ± 0.071
10,V5C,-0.074 ± 0.042
11,V5M,-0.011 ± 0.073
12,V5P,0.167 ± 0.053
13,W46D,-0.684 ± 0.091
14,W46I,-0.444 ± 0.074
15,W46N,-0.33 ± 0.04
16,W46K,-0.829 ± 0.1
17,W46V,-0.573 ± 0.062
18,V62D,-0.164 ± 0.22
19,V62I,-0.103 ± 0.1
20,V62R,0.105 ± 0.42
21,V62A,-0.193 ± 0.47
22,C18P,-0.84 ± 0.092
23,C18L,-0.966 ± 0.069
